Laboratory results reported in patent publication US20150344570A1 (published 2015).

T1: FcγRIIb extracellular domain with C-terminal His tag (human, UniProt P31994 43-217)
T1 construct: extracellular domain; also called 2b; FcgRIIb; not shown: His tag at the C terminus
T1 sequence (looked up): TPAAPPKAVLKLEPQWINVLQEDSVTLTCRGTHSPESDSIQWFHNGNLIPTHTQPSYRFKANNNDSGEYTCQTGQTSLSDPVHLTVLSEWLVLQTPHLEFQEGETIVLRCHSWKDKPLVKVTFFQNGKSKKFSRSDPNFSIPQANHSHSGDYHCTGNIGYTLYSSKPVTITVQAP

T2: FcγRIIb extracellular domain with C-terminal His tag (human, UniProt P31994 43-217)
T2 construct: extracellular domain; also called FcgRIIb; 2b; not shown: His tag attached to the C terminus
T2 sequence (looked up): T1 sequence (looked up)

B1: GpH7-A5/GpH7-B3 variant G236_09D/GpL16-k0 (antibody, human IgG1, kappa)
heavy 1: not shown
heavy 2: not shown
light: DIVMTQSPLSLPVTPGEPASISCQASESLVHSNRNTYLHWYLQKPGQSPQLLIYKVSNRFSGVPDRFSGSGSGTDFTLKISRVEAEDVGVYYCSQNTHVPPTFGQGTKVEIERTVAAPSVFIFPPSDEQLKSGTASVVCLLNNFYPREAKVQWKVDNALQSGNSQESVTEQDSKDSTYSLSSTLTLSKADYEKHKVYACEVTHQGLSSPVTKSFNRGEC
notes: IgG1, anti-glypican-3; also called He Ab
B2: GpH7-A5/GpH7-B3 variant G237_13S/GpL16-k0 (antibody, human IgG1, kappa)
heavy 1: not shown
heavy 2: not shown
light: B1 light
notes: as for B1
B3: GpH7-A5/GpH7-B3 variant G237_09D/GpL16-k0 (antibody, human IgG1, kappa)
heavy 1: not shown
heavy 2: not shown
light: B1 light
notes: as for B1
B4: GpH7-A5/GpH7-B3 variant G237_19Q/GpL16-k0 (antibody, human IgG1, kappa)
heavy 1: not shown
heavy 2: not shown
light: B1 light
notes: as for B1
B5: GpH7-A5/GpH7-B3 variant P238_02A/GpL16-k0 (antibody, human IgG1, kappa)
heavy 1: not shown
heavy 2: not shown
light: B1 light
notes: as for B1
B6: GpH7-A5/GpH7-B3 variant G237_06M/GpL16-k0 (antibody, human IgG1, kappa)
heavy 1: not shown
heavy 2: not shown
light: B1 light
notes: as for B1
B7: GpH7-A5/GpH7-B3 variant P331_03V/GpL16-k0 (He Ab) (antibody, human IgG1, kappa)
heavy 1: not shown
heavy 2: not shown
light: B1 light
notes: Heterodimerized antibody with the alteration in one H chain only
B8: GpH7-A5/GpH7-B3 variant L328_15Y/GpL16-k0 (He Ab) (antibody, human IgG1, kappa)
heavy 1: not shown
heavy 2: not shown
light: B1 light
notes: as for B7
B9: GpH7-A5/GpH7-B3 variant P331_10E/GpL16-k0 (He Ab) (antibody, human IgG1, kappa)
heavy 1: not shown
heavy 2: not shown
light: B1 light
notes: as for B7
B10: GpH7-A5/GpH7-B3 variant P331_04F/GpL16-k0 (He Ab) (antibody, human IgG1, kappa)
heavy 1: not shown
heavy 2: not shown
light: B1 light
notes: as for B7
B11: GpH7-A5/GpH7-B3 variant L328_18N/GpL16-k0 (He Ab) (antibody, human IgG1, kappa)
heavy 1: not shown
heavy 2: not shown
light: B1 light
notes: as for B7
B12: GpH7-A5/GpH7-B3 variant I332_11K/GpL16-k0 (He Ab) (antibody, human IgG1, kappa)
heavy 1: not shown
heavy 2: not shown
light: B1 light
notes: as for B7
B13: GpH7-A5/GpH7-B3 variant L328_06M/GpL16-k0 (He Ab) (antibody, human IgG1, kappa)
heavy 1: not shown
heavy 2: not shown
light: B1 light
notes: as for B7
B14: GpH7-A5/GpH7-B3 variant L328_10E/GpL16-k0 (He Ab) (antibody, human IgG1, kappa)
heavy 1: not shown
heavy 2: not shown
light: B1 light
notes: as for B7
B15: GpH7-A5/GpH7-B3 variant P329_20W/GpL16-k0 (He Ab) (antibody, human IgG1, kappa)
heavy 1: not shown
heavy 2: not shown
light: B1 light
notes: as for B7
B16: GpH7-A5/GpH7-B3 variant L328_14T/GpL16-k0 (He Ab) (antibody, human IgG1, kappa)
heavy 1: not shown
heavy 2: not shown
light: B1 light
notes: as for B7
B17: GpH7-A5/GpH7-B3 variant P331_08L/GpL16-k0 (He Ab) (antibody, human IgG1, kappa)
heavy 1: not shown
heavy 2: not shown
light: B1 light
notes: as for B7
B18: GpH7-A5/GpH7-B3 variant P331_06M/GpL16-k0 (He Ab) (antibody, human IgG1, kappa)
heavy 1: not shown
heavy 2: not shown
light: B1 light
notes: as for B7
B19: GpH7-A5/GpH7-B3 variant L328_16H/GpL16-k0 (He Ab) (antibody, human IgG1, kappa)
heavy 1: not shown
heavy 2: not shown
light: B1 light
notes: as for B7

target: T3, FcγRIIIa extracellular domain with C-terminal His tag (human, UniProt P08637 17-208); test: SPR (Biacore), relative to GpH7-A5/GpH7-B3/GpL16-k0 = 100
T3 construct: extracellular domain; also called 3a; FcgRIIIa; not shown: His tag at the C terminus
T3 sequence (P08637 17-208): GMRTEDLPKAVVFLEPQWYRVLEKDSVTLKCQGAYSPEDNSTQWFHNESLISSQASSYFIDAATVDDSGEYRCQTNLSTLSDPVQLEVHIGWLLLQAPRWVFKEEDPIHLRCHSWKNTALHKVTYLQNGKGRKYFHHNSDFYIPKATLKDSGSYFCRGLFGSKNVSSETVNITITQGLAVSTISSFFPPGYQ

Row | He/Con_3a | Binder
1 | 71.2 % (control = 100) | B1
2 | 38.4 % (control = 100) | B2
3 | 17.7 % (control = 100) | B3
4 | 43.3 % (control = 100) | B4
5 | 31.4 % (control = 100) | B5
6 | 31.9 % (control = 100) | B6

target: T1, FcγRIIb extracellular domain with …; test: as above

Row | He/Con_2b | Binder
7 | 167 % (control = 100) | B1
8 | 111 % (control = 100) | B2
9 | 223 % (control = 100) | B3
10 | 108 % (control = 100) | B4
11 | 57.4 % (control = 100) | B5
12 | 130 % (control = 100) | B6

target: T3, FcγRIIIa extracellular domain with …; test: SPR (Biacore); ratio of He/Con_3a (FcγRIIIa) to He/Con_2b (FcγRIIb)

Row | He_3a/2b (IIIa/IIb) | Binder
13 | 0.43 | B1
14 | 0.35 | B2
15 | 0.08 | B3
16 | 0.4 | B4
17 | 0.55 | B5
18 | 0.25 | B6

target: T2, FcγRIIb extracellular domain with …; test: SPR (Biacore), antibody captured on antigen peptide chip, FcγR as analyte; relative binding
Method: (§1) The heterodimerized antibodies He Abs in which one of the H chains was introduced with an alteration were assayed for their binding activities to each activating FcγR and inhibitory FcγR according to the method described in Example 4. […] The activating FcγRs in FIGS. 26, 27, 28, and 29 are FcγRIa, FcγRIIa (R), FcγRIIa (H), and FcγRIIIa, respectively.
(§2) Analysis of interaction between objective antibody and the FcγR was carried out using Biacore T100 (GE Healthcare). HBS-EP+ (GE Healthcare) was used as the running buffer, and the measurement temperature was set to 25° C. Chips produced by immobilizing the antigen peptide by the amine coupling method to a Series S Sencor Chip CM5 (GE Healthcare), or alternatively, chips produced by allowing preliminarily biotinylated antigen peptides to interact with and immobilize onto a Series S Sensor Chip SA (certified) (GE Healthcare) were used. Antibodies of interest were captured onto an antigen peptide-immobilized chip, and allowed to interact to each FcγR diluted with running buffer. To regenerate and repeatedly use the chip, the antibodies captured on the chip were washed off by reacting 10 mM glycine-HCl, pH 1.5.

Row | He/Con_2b | Binder
19 | 119 % of GpH7-A5/GpH7-B3/GpL16-k0 (=100) | B7
20 | 193 % of GpH7-A5/GpH7-B3/GpL16-k0 (=100) | B8
21 | 116 % of GpH7-A5/GpH7-B3/GpL16-k0 (=100) | B9
22 | 110 % of GpH7-A5/GpH7-B3/GpL16-k0 (=100) | B10
23 | 80.8 % of GpH7-A5/GpH7-B3/GpL16-k0 (=100) | B11
24 | 70.9 % of GpH7-A5/GpH7-B3/GpL16-k0 (=100) | B12
25 | 142 % of GpH7-A5/GpH7-B3/GpL16-k0 (=100) | B13
26 | 172 % of GpH7-A5/GpH7-B3/GpL16-k0 (=100) | B14
27 | 45.1 % of GpH7-A5/GpH7-B3/GpL16-k0 (=100) | B15
28 | 141 % of GpH7-A5/GpH7-B3/GpL16-k0 (=100) | B16
29 | 95.7 % of GpH7-A5/GpH7-B3/GpL16-k0 (=100) | B17
30 | 102 % of GpH7-A5/GpH7-B3/GpL16-k0 (=100) | B18
31 | 80.6 % of GpH7-A5/GpH7-B3/GpL16-k0 (=100) | B19

target: T4, FcγRIIIa extracellular domain with C-terminal His tag (human, UniProt P08637 17-208); test: as above
T4 construct: extracellular domain; also called FcgRIIIa; 3a; not shown: His tag attached to the C terminus
Method: as §1, §2
T4 sequence (P08637 17-208): as above

Row | He/Con_3a | Binder
32 | 73.2 % of GpH7-A5/GpH7-B3/GpL16-k0 (=100) | B7
33 | 68.3 % of GpH7-A5/GpH7-B3/GpL16-k0 (=100) | B8
34 | 75.1 % of GpH7-A5/GpH7-B3/GpL16-k0 (=100) | B9
35 | 77.3 % of GpH7-A5/GpH7-B3/GpL16-k0 (=100) | B10
36 | 49.7 % of GpH7-A5/GpH7-B3/GpL16-k0 (=100) | B11
37 | 45.1 % of GpH7-A5/GpH7-B3/GpL16-k0 (=100) | B12
38 | 78.6 % of GpH7-A5/GpH7-B3/GpL16-k0 (=100) | B13
39 | 53.4 % of GpH7-A5/GpH7-B3/GpL16-k0 (=100) | B14
40 | 31.7 % of GpH7-A5/GpH7-B3/GpL16-k0 (=100) | B15
41 | 75.3 % of GpH7-A5/GpH7-B3/GpL16-k0 (=100) | B16
42 | 72.1 % of GpH7-A5/GpH7-B3/GpL16-k0 (=100) | B17
43 | 74.8 % of GpH7-A5/GpH7-B3/GpL16-k0 (=100) | B18
44 | 54.3 % of GpH7-A5/GpH7-B3/GpL16-k0 (=100) | B19
